This note sets out measurements from EP1212366B1.

Test [1] deals with human FcγRI (CD64) on cells (human) (UniProt P12314). The test is described as follows: cell-based or functional assay.
For test [2] the target is unchanged. The test is described as follows: flow cytometry, fluorescein-conjugated antibody on monocytes.
Test [3] addresses soluble fusion protein of the extracellular domain of human FcγRI and human IgM heavy chain (sFcγRI-µ) (human) (UniProt P12314). The test is described as follows: ELISA on captured sFcγRI-µ, against a nonspecific human IgG1 mAb.

With “chemically linked M22 Fab' multimer M22 F(ab')3+”, the human CD64 surface expression on macrophages of CD64-transgenic mice (M32.2-FITC) in test [1] was under 50 % reduction.
Take “murine anti-FcγRI monoclonal antibody M22”: in test [2], the antibody sites per cell (antibody sites per cell) was determined as 10000.
For the substance “humanized anti-FcγRI antibody H22 (KOL VH/REI Vκ mAb)”, in test [2], the antibody sites per cell (antibody sites per cell) is 10500. The percent of binding via the Fv portion in test [3] was over 95%.
Take “M22 Fab' x 32.2 Fab' x M22 Fab' chemically linked trivalent antibody”: in test [1], the FcγRI expression on monocytes in whole blood (modulation assay) (% of the level prior to BsAb treatment) turned out to be 50.
